# Laboratory results as given in the nanobody polyreactivity screen of Harvey et al. (2022).
# Test: yeast display, Sf9 membrane polyspecificity reagent, FACS + sequencing; frameworks hold sequencing errors
# Outline: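 In a synthetic yeast display library (Saccharomyces cerevisiae BJ5465), nanobody expression was induced with galactose for 36–48 hours. FACS gates were set low and high (top ~1%) using anti-HA fluorescence for expression and streptavidin fluorescence for binding of the Sf9 membrane reagent. Each polyreactivity label is drawn from the gate of origin.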
row,Sequence,polyreactivity (PSR sort gate)
1,QVQHVESGGGLVQAGGSLRLSCAASGSTFGRNAMGWYRQAPGKERELVAAINWSDGSTHYADSVKGRFTISRDNAKNTVYLQMNSLKPEDTAVYYCGADAWSWPVDYNYWGQGTQVTVSS,low polyreactivity
2,QVQLVESGGGFVQAGGSLRLSCAGSGRIYYRYAMGWYSQERGKERELVAAISGSVGSTYADYVKGRFTISRDNAKNTVYLQMKSLKPEDTAFYYCARETYGRYGAYDYWGQGTQVTVSS,low polyreactivity
3,QVQLVESGGGLVQAGGSLRLRCAASGRTFTAYTMGLYRQAPGKEREFVASISSGVTYADSVKGRFTISRDNAKITVYLQMNSLKPEDTAVYYCAARLWYVQGYVPYVHHRFDYWGQGTQVTVSS,low polyreactivity
4,QVQLVESGGGLVQAGGSLRLSCAASGIIFYGNAMGWYRQAPGKERELVAAISWSGSSTYYADSVKGRFTISRDNAKNTVYLQMNSLKPEDPAVYYCNKATSSVRYLKYYYWGQGTQVTVSS,high polyreactivity
5,QVQLVESGGGLVQAGGRLRLSCAASGSTFGGNAMGWSRQAPGKERELVATISNSGGRTYYADSVKGRFTISRDNAKNTVYLQMNSLKPEDTAVYYCAADHPAFGPGYSFDYWGQGTQVTVSS,low polyreactivity
6,QVQLVESGGGLVQAGGSLRLSCAASGRIFQGNAMGWYRQATGKERELVAAITTSGGSTYYADSVKGRFTISRDNAKNTVYLQMNSLKPEDTAVYYCNVDPRKRSYDYWGQGTQVTVSS,high polyreactivity
7,QVQLVESGGGLVQAGGSLRLSCAASGSIFPKYAKGWYRQAPGKEREMVAAINWRGVSTYYADSVKGRFTISRDNAKNTVYLQMNSLKPEDTAVYYCAADLLHTRQFGYWGQGTQVTVSS,low polyreactivity
8,QVQLVESGGGLVQAGGSLRLSCAASGITIARYAMGWYRQAPGKERELVAAITRSGGRTYYADSVKGRFTISRDNAKITVYLQMKSLKPEDTAVYYCYNVTRGKNHGTKYDYWGQGTQVTVSS,high polyreactivity
9,QVQLVASGGGLVQAGGSLRISCAASGSIIYYYAMGWYRHAPRKERELVAAISTSSGRTYYADSVKGRFTISRDNAKNTVYLQMNSLKPEDTAVYYCANEIPFTRYTWPRYNYWGQGTQVTVSS,high polyreactivity
10,QVQLVESGGGLVQAGGSLRLSCAAPGSTLSYYAMGWYRQATGKERELVAAISLSVGSTYYADSVKGRFTISRDNAKNTVYLQMNSLKPEDTAVYYCAADDFYSGPFRGDYWGQGTQVTVSS,low polyreactivity
11,QVQLVESGGGLVQAGGSLRLSCAASGRTFKYYAMGWYRQAPGKERELVAAISWSGSSTNYADSVKGRFTISRDNAKNTVYLQMNSLKPEDTAVYYCAAATYRQFTGTYDYWGQGTQVTVSS,high polyreactivity
12,QVQLVESGGGLVQAGGSLRLSCAASGSIFGTNTMGWYRQAPGKERELVAAIRLSDSSTYYADSVKGRFTISRDNAKNSFYLQMNSLKPVDTAVYYCAVDYRAYHYYRYDYWGQGTQVTVSS,low polyreactivity
13,QVQLVESGGGLVQAGGSLRLSCAASGRTFYPYAMGWYRQATGKERELVAAIDYSSATTYYADSVKGRFTISRDNAKNTVYLQMNSLKPEDTAVYYCARVGIGVGWSKLNYWGQGTQVTVSS,low polyreactivity
14,QVQLVESGGGLVQAGGSLRLSCAASGITFSSYVMGWYRQAPGKERELVAAISRSGGITYYADSVKGRFTISRDNAKNTVYIQMNSLKPEDTAVYYCAATFPAGWSYANYYYWGQGTQVTVSS,high polyreactivity
15,QVQLVESGGGLVQAGGSLRLSCAASGGTFRAYAMGWYRQAPGKEREFVAAITWSGGRTYYADSVKGRFTISRDNANNTVYLQMNSLKPEDTEVYYCATDQGHYYHAEHDYWGQGTKVTVSS,low polyreactivity
16,QVQLVESGGGLVQAGGSLRLSCAASGRIFGAYALGWSRQAPGKEMELVADIRSTGSTYYADSVKGRFTISRDNAKNTVYLQMNSLKPEDTAVYYCAAKYWKWYHYGFGYWGQGTQVTVSS,high polyreactivity
17,QVQLVESGGGLVLAGGSLRLSCAASGSTFIWNAMGWYRQAPGKERELVAAIRRGSSTNYADSVKGRFTISRDNAKNTVYLQMNSLKPEDTAVYYCAKKQVTTDVSSETFVLEMDYWGQGTQVTVSS,low polyreactivity
18,QVQLVESGGGLVQAGGSRRLICAASGSIFGWYAMGWYRPAHGKERELVAAISQSGGRTYYADSVKGRFTISRDNAKNTVYLQMNSLKPEDTAVYYCAAYYTSYWGYDYDYWGQGTQVTVSS,low polyreactivity
19,QVQLVESGGGLVQAGGSLRLSCAASGLTFAQYAMGWYRQAPGKERELVAAITSRGTNTYYADSVKGRFTISRDNAKNTVYLQMNSLKPEDTAVYYCNTYRARLGTTFIDYDYWGQGTQVTVSS,high polyreactivity
20,QVQLVESGGGLVQAGGSLRISCAASGFTFKRYAMGWYRQAPGKERELVAAITWRGGSTYYADSVKGRFTISRDNAKNTVYLQMNSLKPEDTAVYYCAAYSYPYWQKRPYDYWGQGTQVTVSS,high polyreactivity
21,QVQLVESGGGLVQAGGSLRLSCAASGSIFFYYAMGWYRQAPGKEREFVAHITSSDASTHYADSVKGRFTISRDNAKNTVYLQMNSLKPEDTAVYYCAADRYPGHRERDYWGQGTQVTVSS,low polyreactivity
22,QVQLVESGGGLVQAGGSLRLSCAASGSTFQYYAMGWYRQAPGKERELVAAISSSGGSTYYADSVKGRFTISRDNAKNTVYLQMNSLKPEDTAVYYCAKRFRRFTYTRDYWGQGTQVTVSS,high polyreactivity

row,Sequence,polyreactivity (PSR sort gate)
1,QVQLVESGGGLVQAGGSLRLSCAASGRIFYYNTMGWYRQAPGKERELVAAITTNGGSTYYADSVKGRFTISRDNAKNTVYLQMNSLKPEDTAVYYCNRDRYPYYYAYNYWGQGTQVTVSS,low polyreactivity
2,QVQLVESGGGLVQAGGSLRLSCAASGRIFRKYAMGWYRQAPGKERELVAAINWSGGSTYYADSVKGRFTISRDNAKNTVYLQMNSLKPEDTAVYYCAAYVRRVGYYYWGQGTQVTVSS,high polyreactivity
3,QVQLVESGGGLVQAGGTLRLSCAASGSTFVGYAMGWYRQAPGKERELVAAISSSGSTNYADSVKGRFTISRDNAKNTVYLQMNSLKPEDTAVYYCAALYSYFWLIIDYGYWGQGTQVTVSS,low polyreactivity
4,QVQLVESGGGLVQAGGSLRLSCAASGRIFTHNAMGWYRQAPGKERELVAAITSGGRTTYADSVKGRFTISRDNAKNTVYLQMNSLKPEDTAVYYCNADTGLGSLDFYNRDYWGHGTQVTVSS,low polyreactivity
5,QVQLVESGGGLVQAGGSLRLSCAASGLIFTYYAMGWYRQAPGKERELVAGISSGTNTNYADSVKGRFTISRDNAKNTVYLQMISLKPEDTAVYYCAKTRGYQFVAYGYWGQGTQVTVSS,low polyreactivity
6,QLQLVESGGALVQAGGSLRLSCAASGFTFSRNVMGWYRQAPGKERELVAAISSGSTYYADSVKGRFTISRDNAKKTVYLQMNSLKPEDTAVYYCAKRGRLRNYDYWGQGTKVTVSS,high polyreactivity
7,QVQLVESGGGLVQAGGSLRLSCAAAGIIFILYTMGWYRKAPGKERELVATISSGGGSTFYADSVKGRFTISRDNAKNTVYLQMHRLKPEDTAVYYCAAFPVFGYSYDYWGQGTQVTVSS,low polyreactivity
8,QVQLVEPGGGLVHAGGSLRLSCAASGRIYYVYAMGWYRQAPGKERELVAGIRSGGSTNYADSVKGRFTISRDNAKNTVYLQMNSLNPEDTAVYYCAVQSYGALSPQLVYRRYDYWGQGTQVTVSS,high polyreactivity
9,QVQLGESGGGLVQAGGSLRLSCAASGIIFYRYAMGWYRQAPGKERELVAAITWSGVSTSYADSVKGRFTISRDNAKNTVYLQMNSLKQEDTAVYYCNKDPGTLYGDMDSWGQGTQVTVSS,low polyreactivity
10,QVQLVESGGGLVQAGGSLRLSCAASGNTFIRYAMGWYRQAPGKEREFVATITKRGGSTYYADSVKGRFTISRDNAKNTVYLQMNSLKPEDTAVYYCARGPSGTPNGNTPYGDNRYNSWGQGTQVTVSS,low polyreactivity
11,QVQLVESGGGLVQAGGSLRLSCAASGSTFTSYAMGWYRQAPGKERELVAGITSRGTSTYYADSVKGRFTISRDHAKNTVYLQMNSLKPEYTAVYYCAAVYLSYGPGSEDPLGYWGQGTQVTVSS,high polyreactivity
12,QVQLVESGGGLVQAGGSLRLSCAASGGIFPTYVMGWYRQAPGKERELVAAIDRNGTSTTYADSVKGRFTISRDYAKNTVYLQMNSLKPEDTAVYYCAAGYNDQTSAYDYWGQGTQVTVSS,low polyreactivity
13,QVQLVESGGGLVQAGGSLRLSCAASGSIFDVNAMGWYRQAPGKERELVAAISDSGGSTFYADSVKGRFTISRDNAKNTVYLQMNTLKPEDTGVYYCNTEDFFNVPEMDSWGQGTQVTVSS,low polyreactivity
14,QVQLVESGGGLVQAGGSLRLICAASGRTFSNAMGWYRQAPGKERELVADISSGGSPNYADSVKGRFTISRDNAKNTVYLEINSLKPEDTAVYYCAAFSGCLYGYSDDYWGQGTQVTVSS,low polyreactivity
15,QVQLVESGGGLVQAGGSLRLSCAASGSIFVIYAMGWYRQAPGKERELVAAISWNGGSTFYADSVKGRFTISRDNAKNTVYLQMNSLKPDDTAVYDCNTVASYYRWKSYYYWGQGTQVTVSS,high polyreactivity
16,QVQLVESGGGLVQAGGSLRLSCAASGSIFYHNTMGWYIQAPGKERELITYYADSVKGRFTISRDNAKNTVYLQMNSLKPEDTAVYYCAASPVSRTGPGDYDFWGQGTQVTVSS,low polyreactivity
17,QDQVVESGGGLVQAGGSVRLSCADSGSIFWRNAMGWYRQAPGKEREWVAAITSGGTTNYADSVKGRFTLSRDNAKNTVYLQLNTQKPEVTAGDYCATGASDLRRYDHPHSDVDYWGQGTQVTVSA,low polyreactivity
18,QVQLVESGGGLVQAGCSLRLSCAASGRIFSYNAMGWYRPAPAKERELVAAISSDGSTYYADSVKGRFTISRDNAKNTVYLQMNSLKPEDTAVYYCAAYPRVNGNILSTGDYWGQGTQVTVSS,low polyreactivity
19,QVQLVESGGGLVQAGGSLRLSCAASGRIFDDYAMGWYRQAPGKERELVAAIRSGGNTNYADSVKGRFTISRDNAKNTVYLQMNSLKPEDTADYYCAADTWFRAGYFVVYYDYWGQGTQVTVSS,low polyreactivity
20,QVQLVESGGGLVQAGGILRLSCADSGRTFWYYAMGWYRQAHGKERELVAAITRGGRTNYADSVKGRFTISRDNAKNTVYLQMNSLKPEDTAVYYCAADYRYPAHSYGYWGQGTQVTVSS,high polyreactivity
21,QVQLVESGGGLVQAGGSLRLSCAASGSIFQQYAMGWYRQAPGKERELVAAITYSGDGTYYADSVKGRFTISRDNAKNTVYLQMNSLKPEDTAVYYCAAYPRDPYKEYDYWGQGNQVTVSS,low polyreactivity
